The values that follow come from publication PMC10988552.

Broadly, the stoichiometry N is a count of units in the complex or per binding partner.

This experiment addresses T1, granulocyte colony stimulating factor (G-CSF) (human), P09919.
T1 chain: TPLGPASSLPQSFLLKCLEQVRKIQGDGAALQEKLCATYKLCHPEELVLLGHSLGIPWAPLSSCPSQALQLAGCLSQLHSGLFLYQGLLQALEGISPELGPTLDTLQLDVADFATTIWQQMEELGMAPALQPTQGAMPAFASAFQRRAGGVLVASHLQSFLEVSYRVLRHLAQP
Put plainly: SEC; analytical SEC-HPLC, TSKgel G3000SWXL, mobile phase 0.1 M phosphate pH 2.5, 1 mL/min; 0.3 mg/mL G-CSF in 50 mM citric acid pH 4.25 with or without 1% (w/v) sucrose, mannitol or phenylalanine, before lyophilization; monomer 19.9 min, dimer 18.4 min. The following applies: remark: other sources report otherwise. On the technique in general: In gel filtration, larger molecules generally elute earlier.

B1: granulocyte colony stimulating factor (G-CSF), P09919-2 31-204 (natural protein)
chain: T1 chain
In the case of B1, the percent dimer is 16% and the stoichiometry N turned out to be 2.
